Assay results: the nanobody polyreactivity screen of Harvey et al. (2022)

test: yeast display, Sf9 membrane polyspecificity reagent, FACS + sequencing; frameworks hold sequencing errors
Summary of the method: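 A nanobody's polyreactivity label depends on the gate it was sorted from. Yeast display cells were stained with 10% biotinylated, detergent-solubilized Sf9 membrane reagent for 1 hour at 4 °C, enriched on streptavidin microbeads and sorted by FACS. The low and high (top ~1%) gates were set on anti-HA fluorescence for expression and streptavidin fluorescence for reagent binding.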

| Sequence | polyreactivity (PSR sort gate) |
| --- | --- |
| QVQLVESGGVLVQAGGSLRLSCAASGIIFRSNVMGWYRQAPGKERELVAAISTGGGRTYYADSVKGRFTISRDNAKNTVYLQMNILKPEDTAVYYCAAETTPYQPDGFDEYYYWGQGTQVTVSS | high polyreactivity |
| QVQLVESGGVLVQAGGSLRLSCAASGRIFGSYTMGWYRQAPGKERELVAGISRRGGSTYYADSVKGRFTISRDNAKNTVYLQMNSLNPEDTAVYYCAAVSSVFSVRYDYWGQGTQVTVSS | high polyreactivity |
| QVQLVESGGVLVQAGGSLRLSCAASGRIFPTYAMGWYRQAPGKERELVAAISQRGGSTYYADSVKGRFTISRDNAKNTVYLQMNSLKPEDTAVYYCAASYYRQSGEYDYWGQGTQVTVSS | low polyreactivity |
| QVQLVESGGVLVQAGGSLRLSCAASGRIFWLNAMGWYRQAPGKEREFVASITYGSDSTYYADSVKGRFTISRDNAKNTVYLQMNSRTPEDTAVYYCNREGWHYGPYGYWGQGTQVTVSS | low polyreactivity |
| QVQLVESGGVLVQAGGSLRLSCAASGRLFSRYTMGWYRQAPGKERELVAAIRNTGSTNYADSVKGRFTISRDNAKNTVYLQMNSLKPEDTAVYYCNARTAYVAYHYYYPQRMDYWGQGTQVTVSS | high polyreactivity |
| QVQLVESGGVLVQAGGSLRLSCAASGRSFDENSMGWYRQAPGKERELVAAITGGDSTNYADSVKGRFTISRDNAKNTVYLQMNSLKPEDTAVYYCAKDQERVTKGRFYLLEYYWGQGTQVTVSS | low polyreactivity |
| QVQLVESGGVLVQAGGSLRLSCAASGRTSKFYAMGWYRPAPGKERELVARITYSGGSTTYADSVKGRFTISRDNAKNTVYLQMNSLKPDDTAVYYFAITSQWLRRYYYWGQGTQVTVSS | high polyreactivity |
| QVQLVESGGVLVQAGGSLRLSCAASGSAFRENDMGWYRQAPGKERELVAAITFSGGSTYADSVKGRFTISRDIAKNTVYLQMNSLKPEDSAVYYCSADTLPAEYEYDYWGQGTQVTVSS | low polyreactivity |
| QVQLVESGGVLVQAGGSLRLSCAASGSIFKLNAMGWYRQAPGKERELVAVINKSGGRTFYADSVKGRFTISRDNAKNTVYLQMNRLKPEDTAVYYCNAVSNLAVNLDYWGQGTQVTVSS | high polyreactivity |
| QVQLVESGGVLVQAGGSLRLSCAASGSIFYVNAMGWYRQAPGKERELVATITTDGSTNYADSVKGRFTISRDNAKNTVYLPMNSLKPEDTAVYYCAAERWLATPTVPWYLYNYWGQGTQVTVSS | low polyreactivity |
| QVQLVESGGVLVQAGGSLRLSCAASGSLFSRYAMGWYRQAPGKERELVAAISSSGGSTYYADSVKGRFTISRDNAKNTVYLQMISLKREDTAVYDCGAELRYYLVWLYYWGQGTQVSVSS | low polyreactivity |
| QVQLVESGGVLVQAGGSLRLSCAASGSTFFLYMGWYRQAPGKERELVAAITVSGRSTYYADSVKGRFTISRDNAKNTVYLQMNSLKPEDTAVYYCNADWVLRYDYWGQGTQVTVSS | low polyreactivity |
| QVQLVESGGVLVQAGGSLRLSCAASGSTFPWYAMGWYRPAPGKERELVAAITARGTRTYYADSVKGRFTISRDNAKNTVYLQMNILKPEDTAVYYCNAGISSRYDYWGQGTQVTVSS | high polyreactivity |
| QVQLVESGGVLVQAGGSLRLSCAASGSTFWTNTMGWYRQAPGKERELVAAISRRGGTTYYADSVKGRFTISRDNAKNTVYLQMNSLKPEDTAVYYCATSLIGKTVPLRVYYWGQGTQVTVSS | high polyreactivity |
| QVQLVESGGVLVQAGGSLRLSCAASGSTIRLYAMGWYRQAPGKERELVAAIRSGGNTNYADSVKGRFTISRDNAKNSVYLQMKSLKREDTAVYYCNGFCAQLPVPNYDYWGQGPQVTVSS | high polyreactivity |
| QVQLVESGGVLVQAGGSLRLSCAATGSIINRYAMGWYRQAPRKERELVAAISSTGSTYYADSVKGRFTISRDNAKNTVYLQLNSLKPEDTAVYYCNADATLDWLRVDSYVYWGQGTQVTVSS | low polyreactivity |

| Sequence | polyreactivity (PSR sort gate) |
| --- | --- |
| QVQLVESGGVLVQAGGSLRLSCADSGRTFWYYAMGWYRQAPGKEREWVASISASGGSTFYADSVKGRFTISRDNAKNTVSLQMNSLKPEDTAVYYRAAKNAVWRRYEYWGQGTQVTVSS | high polyreactivity |
| QVQLVESGGVLVQAGGSLRLSCASSLTISYRYAMGWYRTAPGKERELVAAITSGGGTTYYADSVKGRFTISRDNAKNTVYLQMNSMKPEDTAVYYCAKPRARQAFEYWGQGTQVTVSS | high polyreactivity |
| QVQLVESGGVLVQALGSLRLSCAASVITIDNYVMGWYRQAPGKERELVAAISIGGGTYYADSVKGRFTISRDNAKNTVYLQMNSRKPEDSAVYYCKARSDVSYWWGGYWGQGTQVTVSS | low polyreactivity |
| QVQLVESGGVLVQARGILRLICAASGSTFSFNDMGWYRQAPGKERELVAAISRGDNTYYADSVKGRFTISRDNAKNTVYLQMNSLKPDDTSVYYCAADYTYGPPYGYNYWGQGTQVTVSS | low polyreactivity |
| QVQLVESGGVLVQAVGSLRLSCAASGSIFRLYALGWYREARGKEREFVATITWSGGSTSYADSVKGRFTISRDNAKNTVYLQMNSLKPEDTAVYYCAAKRRYWLYDWGQGTQVTVSS | high polyreactivity |
| QVQLVESGGVLVQGRGSLRLSCDASGFTYYTNDMGWYRQAPWKERELVAAINSGGSTKYADSVKGRFPISRDNAKNTVYEQMNSLKPEETAVYYCNRDDNRKHSFGSVGYDYWGQGHQVTVSS | low polyreactivity |
| QVQLVESGGWLVQAGGSLRLSCAASGFIFYRYAMGWYRPAPGKERELDAAISGSGGRTYYADSVKGRFTISRDNAKNTVYLQMNSLKPEDTAVYYCAADKQAYVTDDYWGQGTQVTVSS | high polyreactivity |
| QVQLVESGGWLVQAGGSLRLSCAASGSIFTINTMGWYRQARGKERELVAAITGSGGITYYADSVKGRFTISRDNAKNTVYLQMNSLNPVDTAVYYCAAVVYGTVRRVGWYYVGEGYDYWGQGTQVTVSS | low polyreactivity |
| QVQLVESGLGLVKAGGSLRLSCAASGNTFDHYVMVWSRQAPGKEPELVASITSGGSTNYADSVKGRFTISRDNAKNTVYLQMNSLKPEDTAVYYCAVSLSYWYEAFTTRIDYYYWGQGTQVTLSS | high polyreactivity |
| QVQLVESGLGLVQAGRSLRLSCASSGRIFNYYAMVWYRQAPGKERELVAGINWSGTRTYYADSVKGRFTISRDNAKNTVYLQMNSLKPEDTAVYYCNAGRTWRAFTGDEYWGQGTQVSVSS | high polyreactivity |
| QVQLVESGRGIVQAGGSLRLSCAASGRIFRVNAMGWYRQAPGKERELVATISYSGGSTYADSVKGRFTISRDNAKNTVYLQMNSLKPEDTAVYYCAARPYYRYYRYPYGYWGQGTQVTVSS | high polyreactivity |
| QVQLVESGRGLFQAGGSLRLSCAASGRIFRYYAMGWSRQATGKERELVAAISGSGGSTYYAASVKGRFTISGDNAKNTVYLLMNSLKPEDNAVYYCNALYRIASGEGDLWGQGTQVTVSS | low polyreactivity |
| QVQLVESGRGLFQAGRSLRISCAASGSIFSYNTMGWYREAPGKERELVASISSGGRTYYADSVKGRFTISRDNAKNTVYLQMNSLKPVDTAVYDCARVPYAYLPYKPFQQYSYDYWGQGTQVTVSS | high polyreactivity |
| QVQLVESGRGLVHAGGSLLLSCAASGSTFGWYAMGRFIQARGKEREFVAAISWSGTSTYYADSVKGRFTISRDNAKNTFDLQMNSLKPEDTAVYYCASRWVVFTEREDYWGQGTQVTVSS | low polyreactivity |
| QVQLVESGRGLVPAGGSLRLSCAASGSTFFKNAMGWYRQAPGNERELVAAITWSGDRTYADSVKGRFTISRDNAKNTVYLQMNSLKPEDTAVYYCNVDITGYEDDEWGQGTQVTVSS | low polyreactivity |
| QVQLVESGRGLVQAGCSLRLSCAASGRIFPWNAMGWYRQAPGKETEFVAAITSGGGTTYYADSVKGRFTISRDTAKITVYLQMNSLKQEDTAVYYCAAPVYTVRGWRGLYGYWGQGSQVTVSS | high polyreactivity |
